Results published in US7807471.

Molecular target: recombinant murine IL-12 (R&D Systems) (murine) (UniProt P43431)
Test: cell-based or functional assay

C17.8 (rat anti-mouse IL-12/IL-23p40, IgG2a) (antibody)
in vitro neutralization of IL-12 (times (against the anti-p35 mAb)): 5
